{"source": "patent US20210008162A1", "about": "(OP T, published 2021)", "key": {"[1]": {"target": "T1, mouse CD40 on cells (CD40+ T cells / Th40 cells and B cells of NOD mice; mouse CD4+CD40+ cells in culture) (mouse, UniProt P27512 20-289)", "T1 construct": "whole, on cells; The target is inferred from CD40+ cells; No purified CD40 was tested; also called CD40 protein", "T1 sequence (looked up)": "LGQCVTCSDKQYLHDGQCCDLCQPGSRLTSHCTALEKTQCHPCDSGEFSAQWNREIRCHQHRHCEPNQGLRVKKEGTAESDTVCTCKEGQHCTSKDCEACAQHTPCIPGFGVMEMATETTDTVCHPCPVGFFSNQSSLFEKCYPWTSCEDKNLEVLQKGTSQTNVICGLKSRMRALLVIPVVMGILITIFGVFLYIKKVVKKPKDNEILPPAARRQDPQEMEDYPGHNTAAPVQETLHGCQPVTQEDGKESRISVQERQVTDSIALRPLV", "assay": "KGYY-15 bound to live CD4+CD40+ cells kept in culture for 10 days, percent bound over days post treatment; the text says 'human or mouse' cells"}, "[2]": {"target": "T2, human CD40 on CD4+CD40+ cells (human, UniProt P25942 21-277)", "T2 construct": "whole, on cells", "T2 sequence (P25942 21-277)": "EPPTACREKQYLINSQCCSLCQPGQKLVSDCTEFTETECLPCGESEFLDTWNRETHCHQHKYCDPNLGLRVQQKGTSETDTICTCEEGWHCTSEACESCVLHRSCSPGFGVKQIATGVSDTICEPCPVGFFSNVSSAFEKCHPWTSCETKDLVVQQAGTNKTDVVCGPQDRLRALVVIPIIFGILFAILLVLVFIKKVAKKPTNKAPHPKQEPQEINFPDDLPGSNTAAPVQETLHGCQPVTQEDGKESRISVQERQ", "assay": "KGYY-15 bound to live CD4+CD40+ cells kept in culture for 10 days, percent bound over days post treatment; the text says 'human or mouse' cells"}}, "note": "Where no end group is shown, it is not given here.", "data": [{"binder": "VLQWAKKGYYTMKSN-NH2 (also called 15-mer-Form 1)", "note": "[KGYY-15 (SEQ ID NO:11)]", "values": [{"measurement": "binding result", "setting": "[1]", "value": "binds"}, {"measurement": "binding result", "setting": "[2]", "value": "binds"}]}]}
